Measurements published in patent US20030054411A1, “GPR motifs and uses thereof” (priority 2001, published 2003).

System: Giα3 in DDT1-MF2 cell lysates
Test: GST-AGS3 interaction with endogenous Giα3 in cell lysates
Type: binding
Conditions: 30 uM GDP or GTPγS
Text: A) Sequence of full length rat AGS3. The shaded and overlined sequences represent the tetratricopeptide repeat motif and a repeated segment of amino acids (I-IV), respectively, as discussed in the text. The underlined amino acids indicate the fragment (cDNA #53) isolated in the original yeast screen. B) The four repeat domains in the carboxyl terminus half of AGS3, human LGN, the predicted C. elegans protein and related sequences identified by the motif search program MEME were aligned and used to define a consensus sequence as described in the Examples. Right panel—Interaction of wild type AGS3 and AGS3 mutants with Giα2 in mammalian cell extracts. The AGS3 eDNA isolated in the yeast screen and shown to interact with Gα subunits (FIG. 2B) was modified by site-directed mutagenesis to disrupt conserved residues within the GPR motif. The number of the amino acids altered in the mutant constructs (F8R, Q15A and R23F) refers to their position in the sequence found in the left panel aligning the conserved domains. […] Giα subunits were detected on membrane transfers with the Giα3 antibody and Gβ was detected with an amino terminus antibody. […]
Immunoblotting and G-protein interaction assays. […] Bound proteins were detected by immunoblotting membrane transfers with specific antisera. […]

B1: AGS3: Activator of G-protein Signalling 3; bioactive 74 amino acid fragment isolated in yeast screen, tested as GST fusion (protein)
chain: MLIKYQSSRIDDQRCPPPDVLPRGPTMPDEDFFSLIQRVQAKRMDEQRVDLAGSPDQEASGLPDPRQQCPPGAS
modifications: left off: a dimerising Fc or GST
nucleotide preference of interaction with Gα in crude cell lysate: preferentially interacted with GαGDP versus GTPγS
